Results taken from the supplement of paper PMC9170038.

Tested on: MS2 coat protein
Test: apparent KD of MS2 coat protein; designed switch direction (-1 OFF switch, 1 ON switch): -1; higher = weaker reporter binding
In short: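 For each design, the apparent KD is the median over clusters of curves fitted to normalised cluster fluorescence. Clusters held RNA switches with common flanks, transcribed on Illumina chips by stalled E. coli RNA polymerase. These were titrated with SNAP-549-labelled MS2 coat protein, doubling from 0.7 or 1.5 nM to 3 µM, without input, with 200 uM small-molecule ligand, or with an oligonucleotide input.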

[1] = input ligand: microRNA oligo, concentration not stated

Sequence: ACAUGAGGAUCACCCAUGUGCACGUAAUGGCUCAUGUAGAGAGAGGAUAUGCGUGACGAACGAGCGCAGAAGGCUCAAGACUGG [Deportation 15 - Jieux - Exclusion NG 3] (Eterna round: R96, puzzle: Exclusion NG 3)
- apparent KD of MS2 coat protein (input ligand: FMN 200 uM): 114 nM
- apparent KD of MS2 coat protein [1]: 66.2 nM
- apparent KD of MS2 coat protein (input ligand: none): 73.1 nM

Sequence: GGAUCGAAAGUGAGGAUAUGCUGGUCCUUGGAUCAGCAGAAGGCACAUGAGGAUCACCCAUGUGGGAACGGUCC [Eli bmx4 4.46] (Eterna round: R97, puzzle: Brourd's mod of Exclusion 4)
- apparent KD of MS2 coat protein (input ligand: FMN 200 uM): 1440 nM
- apparent KD of MS2 coat protein (input ligand: none): 298 nM

Sequence: AUAUAGAUGGUCAGGAUAUGCUAGUGGUAACAGUAGCAGAAGGGACAUGAGGAUCACCCAUGUAGAUCCUGCUC [Brourd's EX4 #13] (Eterna round: R97, puzzle: Brourd's mod of Exclusion 4)
- apparent KD of MS2 coat protein (input ligand: FMN 200 uM): 33.5 nM
- apparent KD of MS2 coat protein (input ligand: none): 21.1 nM

Sequence: AUGGGUCCUCACGGAGCUACAUGAGGAUCACCCAUGUGUAUUGAGGAUAUCCACUGCCGACGGCUGGAGAAGGCAGUGUACUGU [Ex NG3 #93] (Eterna round: R96, puzzle: Exclusion NG 3)
- apparent KD of MS2 coat protein (input ligand: FMN 200 uM): 97.8 nM
- apparent KD of MS2 coat protein [1]: 61.5 nM
- apparent KD of MS2 coat protein (input ligand: none): 109 nM

Sequence: UCUCCCGCUCGAGGAUAUCCAUAGAGCAACUGAGGAGAAGGCGAGCGUCCUAAACAUGAGGAUCACCCAUGUGACCUCCCGAAC [Zabiledila] (Eterna round: R96, puzzle: Exclusion NG 1)
- apparent KD of MS2 coat protein (input ligand: FMN 200 uM): 55 nM
- apparent KD of MS2 coat protein [1]: 41.2 nM
- apparent KD of MS2 coat protein (input ligand: none): 39.1 nM

Sequence: UGCAGACGAGGAUAUAAAUUUGAUAACAUGAGGAUCACCCAUGUGAUCGAUAGAUCAAAUUUAGAAGGUGUCUGCA [E5/7-B2] (Eterna round: R97, puzzle: Exclusion 5)
- apparent KD of MS2 coat protein (input ligand: FMN 200 uM): 443 nM
- apparent KD of MS2 coat protein (input ligand: none): 576 nM

Sequence: GGCGCACAUGAGGAUCACCCAUGUGAGGAUAUUAGGCGAUCGUCGAUAGACGAUAGCCUGAGAAGGCACAUGCC [Mat - Exclusion 1 - Eli Mod - D18] (Eterna round: R97, puzzle: Exclusion 1)
- apparent KD of MS2 coat protein (input ligand: FMN 200 uM): 188 nM
- apparent KD of MS2 coat protein (input ligand: none): 29.3 nM

Sequence: AAGAGCAGACGGAGAUCCAACAUGAGGAUCACCCAUGUCUCGCAAGCUUUUUGCUUGUCUUAUCCUCCUCUGUUCAC [Esquitian 4] (Eterna round: R97, puzzle: Sensor, turn-off variant 1)
- apparent KD of MS2 coat protein (input ligand: FMN 200 uM): 14.8 nM
- apparent KD of MS2 coat protein (input ligand: none): 14.6 nM

Sequence: GGACCUCCUGAGGAUAUUGUAUCACCUGACUGAUAAGAAGGCAGAACAUGAGGAUCACCCAUGUGGGUACUCGG [Bingo-Bango-15] (Eterna round: R97, puzzle: Exclusion 6)
- apparent KD of MS2 coat protein (input ligand: FMN 200 uM): 147 nM
- apparent KD of MS2 coat protein (input ligand: none): 190 nM

Sequence: GAAUGAGAGCAGGAUAUCUUAUAAAUAUAUGAAAGAGAAGGGCUCACAUGAGGAUCACCCAUGUGGUCCUAGAU [jl-ex6-4.75 jandersonlee mod] (Eterna round: R97, puzzle: Exclusion 6)
- apparent KD of MS2 coat protein (input ligand: FMN 200 uM): 443 nM
- apparent KD of MS2 coat protein (input ligand: none): 42.9 nM

Sequence: UCUCCCUGGCGAGGAUAUCCUGUGCGGUUCCGGCUCGUGUCUGUUACAUGAGGAUCACCCAUGUGGGAGAAGGUGCCUGUGGCU [Design 93] (Eterna round: R96, puzzle: Exclusion NG 2)
- apparent KD of MS2 coat protein (input ligand: FMN 200 uM): 141 nM
- apparent KD of MS2 coat protein [1]: 68 nM
- apparent KD of MS2 coat protein (input ligand: none): 124 nM

Sequence: CCAAGCUUAUUCAUUAACCACAUGAGGAUCACCCAUGUCUUGGCAAUUAUGACUUGCCCGUCAGGUGCUCGUCUUAU [Sensor-V1 #34] (Eterna round: R97, puzzle: Sensor, turn-off variant 1)
- apparent KD of MS2 coat protein (input ligand: FMN 200 uM): 32.2 nM
- apparent KD of MS2 coat protein (input ligand: none): 32.9 nM
